Assay results published in patent US20160083713.

Assays:
[1] = system: T1, Protein 3: Erythrobacter sp. SD-21 PAL-like domain with N-terminal TAP purification tag (ribosomal protein L9 from T. maritima) and HRV14 3C protease site linker
T1 sequence: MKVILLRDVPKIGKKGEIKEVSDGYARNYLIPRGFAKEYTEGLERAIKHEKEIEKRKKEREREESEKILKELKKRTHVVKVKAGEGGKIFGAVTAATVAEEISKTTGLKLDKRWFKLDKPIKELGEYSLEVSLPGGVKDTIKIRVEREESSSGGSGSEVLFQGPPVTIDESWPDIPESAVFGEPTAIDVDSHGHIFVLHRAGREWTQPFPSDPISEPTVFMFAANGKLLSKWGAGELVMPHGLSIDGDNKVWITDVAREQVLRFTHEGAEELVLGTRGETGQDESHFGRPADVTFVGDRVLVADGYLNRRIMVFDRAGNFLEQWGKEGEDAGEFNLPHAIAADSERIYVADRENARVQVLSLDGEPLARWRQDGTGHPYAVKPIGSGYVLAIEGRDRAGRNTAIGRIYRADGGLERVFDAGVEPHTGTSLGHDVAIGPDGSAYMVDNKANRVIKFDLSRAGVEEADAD

[2] = system: T2, Protein 8: Exiguobacterium PAL-like domain with N-terminal TAP purification tag and HRV14 3C protease site linker
T2 sequence: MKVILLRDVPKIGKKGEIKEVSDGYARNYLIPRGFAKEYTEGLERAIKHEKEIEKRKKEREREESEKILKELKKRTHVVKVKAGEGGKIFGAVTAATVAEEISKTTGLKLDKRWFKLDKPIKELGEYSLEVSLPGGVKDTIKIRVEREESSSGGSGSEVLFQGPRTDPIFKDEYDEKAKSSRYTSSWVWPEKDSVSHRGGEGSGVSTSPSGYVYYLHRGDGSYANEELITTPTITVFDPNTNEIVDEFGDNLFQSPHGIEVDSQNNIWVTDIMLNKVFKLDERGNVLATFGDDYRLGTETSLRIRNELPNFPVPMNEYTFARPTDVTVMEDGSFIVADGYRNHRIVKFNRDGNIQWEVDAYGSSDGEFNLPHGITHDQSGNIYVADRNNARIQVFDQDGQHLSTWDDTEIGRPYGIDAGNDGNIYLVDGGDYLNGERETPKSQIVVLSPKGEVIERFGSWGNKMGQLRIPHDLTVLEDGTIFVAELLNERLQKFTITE

[3] = target: T3, TAP tagged amylin analog model peptide (SEQ ID NO:17), alpha-hydroxyglycine intermediate form
T3 chain: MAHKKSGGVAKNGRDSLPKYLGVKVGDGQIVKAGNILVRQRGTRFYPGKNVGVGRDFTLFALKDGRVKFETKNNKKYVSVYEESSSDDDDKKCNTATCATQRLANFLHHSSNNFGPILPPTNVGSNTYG

[4] = target: C-terminal alpha-hydroxyglycine extended Pramlintide (alpha-hydroxylated SEQ ID NO:25)
[5] = target: C-terminally Gly-extended Pramlintide (SEQ ID NO: 25)
[6] = target: T4, TAP tagged C-terminal Gly extended amylin analog model peptide (SEQ ID NO:17), precursor form
T4 chain: T3 chain

TAP tagged HRV14 3C protease (from WO 2008/043847)
proteolytic cleavage at the linker, LC-MS and SDS-PAGE, overnight at 30 C, enzyme to substrate 1:25 [1]: resulted in two fragments determined to 33323 Da and 18284.78 Da corresponding to the released PAL-like domain ... and to the released purification tag and HRV14 3C linker | proteolytic cleavage at the linker, SDS-PAGE, overnight, enzyme to substrate 1:25 [2]: two fragments corresponding to the mature Exiguibacterium PAL-like domain (SEQ ID NO:2) (upper band) and the released TAP tag (SEQ ID NO:7-SEQ ID NO:8) (lower band) was present in the application

B1: Protein 3: Erythrobacter sp. SD-21 PAL-like domain with N-terminal TAP purification tag (ribosomal protein L9 from T. maritima) and HRV14 3C protease site … (protein)
chain: T1 sequence
conversion to the alpha amidated form, LC-MS, co-incubation with rat PHM at 37 C [3]: near complete conversion to the alpha amidated form required 5 hours incubation with the protein 3 enzyme

B2: Planctomyces PAL-like domain (SEQ ID NO: 4) (protein)
chain: GPADKIDFEPAAINIELPEGLALGPASAVDFDSKGRMYLFHRGPQPILVFDQSGKFVRSWGDKLISQAHGLRVAPDETIWVTDIGNHMVFQFNPEGKLLLALGQAGKPGDSQDQFNKPTDIAFGPQGEFYISDGYGNSRVMKFAANGKNLGQWGTPGKGPGEFNLPHSILVDAKGRVLVGDRENDRVQIFDLEGNLLEIWTGFAPYGMEFDSRGNLFVADGRANKVLQLNASGKVENSWGKTGKEPGEYNLPHMLAVDAAGNLFVTEIGGKRLQKLQRK
conversion of the alpha-hydroxyglycine intermediate to alpha amidated Pramlintide, LC-MS, 37 C, 1 h [4]: could almost completely convert the peptide substrate to fully alpha-amidated peptide using a enzyme to substrate ratio of 1:100

B3: rat PHM domain (amino acids 36 to 497 of the 976 aa full-length rat PAM sequence), His tagged (protein)
chain: FKETTRSFSNECLGTIGPVTPLDASDFALDIRMPGVTPKESDTYFCMSMRLPVDEEAFVIDFKPRASMDTVHHMLLFGCNMPSSTGSYWFCDEGTCTDKANILYAWARNAPPTRLPKGVGFRVGGETGSKYFVLQVHYGDISAFRDNHKDCSGVSVHLTRVPQPLIAGMYLMMSVDTVIPPGEKVVNADISCQYKMYPMHVFAYRVHTHHLGKVVSGYRVRNGQWTLIGRQNPQLPQAFYPVEHPVDVTFGDILAARCVFTGEGRTEATHIGGTSSDEMCNLYIMYYMEAKYALSFMTCTKNVAPDMFRTIPAEANIPIPVKPDMVMMHGHHKEAENKEKSALMQQPKQGEEEVLEQGDFYSLLSKLLGEREDVHVHKYNPTEKTESGSDLVAEIANVVQKKDLGRSDAREGAEHEEWGNAILVRDRIHRFHQLESTLRPAESRAFSFQQPGEGPWEPEPSG
conversion of Gly-extended Pramlintide to the alpha-hydroxyglycine form, LC-MS, enzyme to substrate 1:20 (w/w), 37 C, 2 h [5]: it was verified that the intermediate alpha-hydroxyglycine form of Pramlintide was obtained | conversion of the C-terminal Gly to alpha-hydroxyglycine, LC-MS after 2 hours at 37 C [6]: the vast majority of the model peptide was on the intermediate form comprising a α-hydroxyglycine in the C-terminal

B4: Protein 10: Planctomyces DSM 8797 PAL-like domain with N-terminal TAP purification tag and HRV14 3C protease site linker (protein)
chain: MKVILLRDVPKIGKKGEIKEVSDGYARNYLIPRGFAKEYTEGLERAIKHEKEIEKRKKEREREESEKILKELKKRTHVVKVKAGEGGKIFGAVTAATVAEEISKTTGLKLDKRWFKLDKPIKELGEYSLEVSLPGGVKDTIKIRVEREESSSGGSGSEVLFQGPADKIDFEPAAINIELPEGLALGPASAVDFDSKGRMYLFHRGPQPILVFDQSGKFVRSWGDKLISQAHGLRVAPDETIWVTDIGNHMVFQFNPEGKLLLALGQAGKPGDSQDQFNKPTDIAFGPQGEFYISDGYGNSRVMKFAANGKNLGQWGTPGKGPGEFNLPHSILVDAKGRVLVGDRENDRVQIFDLEGNLLEIWTGFAPYGMEFDSRGNLFVADGRANKVLQLNASGKVENSWGKTGKEPGEYNLPHMLAVDAAGNLFVTEIGGKRLQKLQRK
conversion to the alpha amidated form, LC-MS, co-incubation with rat PHM at 37 C [3]: With protein 10 total conversion of the precursor was observed already after 1 h-2 h incubation

B5: Erythrobacter PAL-like domain (SEQ ID NO: 1) (protein)
chain: GPPVTIDESWPDIPESAVFGEPTAIDVDSHGHIFVLHRAGREWTQPFPSDPISEPTVFMFAANGKLLSKWGAGELVMPHGLSIDGDNKVWITDVAREQVLRFTHEGAEELVLGTRGETGQDESHFGRPADVTFVGDRVLVADGYLNRRIMVFDRAGNFLEQWGKEGEDAGEFNLPHAIAADSERIYVADRENARVQVLSLDGEPLARWRQDGTGHPYAVKPIGSGYVLAIEGRDRAGRNTAIGRIYRADGGLERVFDAGVEPHTGTSLGHDVAIGPDGSAYMVDNKANRVIKFDLSRAGVEEADAD
conversion of the alpha-hydroxyglycine intermediate to alpha amidated Pramlintide, LC-MS, 37 C, 1 h [4]: could almost completely convert the peptide substrate to fully alpha-amidated peptide using a enzyme to substrate ratio of 1:100
